Source: the supplement of paper PMC6379048
pEC50: −log10 of the molar value.

How the values were obtained:
Experiment in all cases: EC50 of free RNA motif oligo competing protein binding to immobilised probe
HMGB2 = biological target: T1, HMGB2 (UniProt P26583)
T1 sequence: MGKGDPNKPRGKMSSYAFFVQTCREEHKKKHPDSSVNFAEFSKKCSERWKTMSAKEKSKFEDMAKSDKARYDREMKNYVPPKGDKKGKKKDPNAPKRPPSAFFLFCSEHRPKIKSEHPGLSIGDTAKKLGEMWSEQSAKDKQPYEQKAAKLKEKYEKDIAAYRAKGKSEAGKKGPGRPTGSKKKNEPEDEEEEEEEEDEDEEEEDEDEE
How it was run: (§1)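 Kd was calculated as EC50, taken from a four-parameter log-logistic fit, multiplied by a protein-dependent depletion factor. The assay used HEK293-FT lysate (2.5 mg protein/well) pre-incubated for 1 h at 4°C with free RNA oligos (0 nM to 30 μM), then incubated for 30 min at 4°C with the matching oligos bound through a 5′-amino-C6 linker to NHS-Sepharose beads. Bound proteins were measured by label-free LC-MS/MS and normalised to the control.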

U2AF2 = U2AF2 (UniProt P26368)
How it was run: as §1

FUBP1 = biological target: T2, FUBP1 (UniProt Q96AE4)
T2 sequence: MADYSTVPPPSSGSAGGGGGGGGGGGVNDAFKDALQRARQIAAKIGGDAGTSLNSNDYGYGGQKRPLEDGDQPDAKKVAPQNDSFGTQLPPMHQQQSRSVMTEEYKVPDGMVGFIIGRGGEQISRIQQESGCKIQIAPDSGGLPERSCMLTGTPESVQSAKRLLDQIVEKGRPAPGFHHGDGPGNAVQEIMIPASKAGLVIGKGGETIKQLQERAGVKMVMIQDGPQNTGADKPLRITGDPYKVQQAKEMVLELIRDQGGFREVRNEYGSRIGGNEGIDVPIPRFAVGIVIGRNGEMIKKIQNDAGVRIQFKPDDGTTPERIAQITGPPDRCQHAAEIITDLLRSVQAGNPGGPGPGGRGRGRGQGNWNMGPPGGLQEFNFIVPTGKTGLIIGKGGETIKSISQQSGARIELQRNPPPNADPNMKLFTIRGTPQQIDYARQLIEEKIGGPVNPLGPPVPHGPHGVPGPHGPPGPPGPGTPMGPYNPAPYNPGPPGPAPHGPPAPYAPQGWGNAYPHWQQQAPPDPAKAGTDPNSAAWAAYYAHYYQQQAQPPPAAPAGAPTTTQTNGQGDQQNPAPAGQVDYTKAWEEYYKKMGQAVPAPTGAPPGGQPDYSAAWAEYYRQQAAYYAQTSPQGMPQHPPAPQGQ
How it was run: as §1

SF3B2 = biological target: T3, SF3B2 (UniProt Q13435)
T3 sequence: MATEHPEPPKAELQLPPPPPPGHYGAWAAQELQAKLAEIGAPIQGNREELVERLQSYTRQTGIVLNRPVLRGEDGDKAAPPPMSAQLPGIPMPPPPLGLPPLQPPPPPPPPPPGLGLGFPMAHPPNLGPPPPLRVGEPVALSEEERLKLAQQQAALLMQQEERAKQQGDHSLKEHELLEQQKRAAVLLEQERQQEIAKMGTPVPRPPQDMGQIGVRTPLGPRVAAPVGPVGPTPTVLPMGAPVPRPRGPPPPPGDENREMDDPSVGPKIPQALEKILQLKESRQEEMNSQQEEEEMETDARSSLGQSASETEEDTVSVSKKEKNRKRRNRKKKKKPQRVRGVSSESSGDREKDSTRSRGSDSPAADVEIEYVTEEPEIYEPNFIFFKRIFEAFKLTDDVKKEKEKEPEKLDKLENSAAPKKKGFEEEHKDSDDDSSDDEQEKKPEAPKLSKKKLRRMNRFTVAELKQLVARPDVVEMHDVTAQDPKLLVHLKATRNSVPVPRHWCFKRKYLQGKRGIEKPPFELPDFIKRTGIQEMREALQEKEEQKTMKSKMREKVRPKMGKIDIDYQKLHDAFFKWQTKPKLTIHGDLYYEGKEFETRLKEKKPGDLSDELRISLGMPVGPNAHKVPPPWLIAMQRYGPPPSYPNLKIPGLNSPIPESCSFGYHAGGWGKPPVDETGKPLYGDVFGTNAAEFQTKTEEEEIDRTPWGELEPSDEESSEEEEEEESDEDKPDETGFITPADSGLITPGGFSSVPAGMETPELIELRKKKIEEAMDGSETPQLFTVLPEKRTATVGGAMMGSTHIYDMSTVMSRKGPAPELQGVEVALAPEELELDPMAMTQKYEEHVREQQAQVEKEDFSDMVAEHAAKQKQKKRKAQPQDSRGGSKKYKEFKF
How it was run: as §1

MRPL48 = MRPL48 (UniProt Q96GC5)
How it was run: as §1

MRPS34 = MRPS34 (UniProt P82930)
How it was run: as §1

Chain of U2AF2 (P26368 whole entry): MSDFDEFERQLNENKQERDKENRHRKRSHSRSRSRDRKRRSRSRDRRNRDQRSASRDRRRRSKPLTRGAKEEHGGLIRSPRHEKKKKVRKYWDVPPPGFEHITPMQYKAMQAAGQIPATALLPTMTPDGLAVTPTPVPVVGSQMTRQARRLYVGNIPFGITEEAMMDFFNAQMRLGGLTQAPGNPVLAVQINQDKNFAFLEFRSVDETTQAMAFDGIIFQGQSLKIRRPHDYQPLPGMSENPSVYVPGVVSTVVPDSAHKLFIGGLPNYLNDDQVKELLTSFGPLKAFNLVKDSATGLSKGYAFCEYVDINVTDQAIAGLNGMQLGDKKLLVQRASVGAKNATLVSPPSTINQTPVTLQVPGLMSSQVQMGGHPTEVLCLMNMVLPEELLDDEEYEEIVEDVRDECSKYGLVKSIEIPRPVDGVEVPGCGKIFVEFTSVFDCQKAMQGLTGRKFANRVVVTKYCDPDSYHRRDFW

For AAUAAA, the pEC50 (HMGB2) was 8.60, the pEC50 (U2AF2) was 5.99 and the pEC50 (FUBP1) was 5.24. It also gave a pEC50 (SF3B2) of 5.93.
CUGUCCU gave a pEC50 (MRPL48) of 6.75.
Work on UAUUUAU yielded a pEC50 (MRPS34) of 7.22.
